Biological target: TT (tetanus toxin / tetanus toxoid) (UniProt P04958 2-1315)
Test: ELISA of hybridoma clones

Sequence of TT (tetanus toxin / tetanus toxoid) (P04958 2-457 limits assumed, chain 1 of 2): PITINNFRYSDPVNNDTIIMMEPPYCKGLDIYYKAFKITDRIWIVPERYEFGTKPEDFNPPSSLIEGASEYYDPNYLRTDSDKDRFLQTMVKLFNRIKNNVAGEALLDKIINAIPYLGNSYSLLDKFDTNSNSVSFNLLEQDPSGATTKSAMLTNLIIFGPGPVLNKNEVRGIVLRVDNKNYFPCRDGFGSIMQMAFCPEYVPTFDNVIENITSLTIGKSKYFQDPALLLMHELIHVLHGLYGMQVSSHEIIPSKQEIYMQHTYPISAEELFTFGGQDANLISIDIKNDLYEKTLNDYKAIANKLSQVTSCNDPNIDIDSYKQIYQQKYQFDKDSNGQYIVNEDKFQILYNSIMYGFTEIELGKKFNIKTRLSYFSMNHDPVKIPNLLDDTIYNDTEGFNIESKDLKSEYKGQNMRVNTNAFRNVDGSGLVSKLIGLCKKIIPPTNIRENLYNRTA
Sequence of TT (tetanus toxin / tetanus toxoid) (P04958 458-1315 limits assumed, chain 2 of 2): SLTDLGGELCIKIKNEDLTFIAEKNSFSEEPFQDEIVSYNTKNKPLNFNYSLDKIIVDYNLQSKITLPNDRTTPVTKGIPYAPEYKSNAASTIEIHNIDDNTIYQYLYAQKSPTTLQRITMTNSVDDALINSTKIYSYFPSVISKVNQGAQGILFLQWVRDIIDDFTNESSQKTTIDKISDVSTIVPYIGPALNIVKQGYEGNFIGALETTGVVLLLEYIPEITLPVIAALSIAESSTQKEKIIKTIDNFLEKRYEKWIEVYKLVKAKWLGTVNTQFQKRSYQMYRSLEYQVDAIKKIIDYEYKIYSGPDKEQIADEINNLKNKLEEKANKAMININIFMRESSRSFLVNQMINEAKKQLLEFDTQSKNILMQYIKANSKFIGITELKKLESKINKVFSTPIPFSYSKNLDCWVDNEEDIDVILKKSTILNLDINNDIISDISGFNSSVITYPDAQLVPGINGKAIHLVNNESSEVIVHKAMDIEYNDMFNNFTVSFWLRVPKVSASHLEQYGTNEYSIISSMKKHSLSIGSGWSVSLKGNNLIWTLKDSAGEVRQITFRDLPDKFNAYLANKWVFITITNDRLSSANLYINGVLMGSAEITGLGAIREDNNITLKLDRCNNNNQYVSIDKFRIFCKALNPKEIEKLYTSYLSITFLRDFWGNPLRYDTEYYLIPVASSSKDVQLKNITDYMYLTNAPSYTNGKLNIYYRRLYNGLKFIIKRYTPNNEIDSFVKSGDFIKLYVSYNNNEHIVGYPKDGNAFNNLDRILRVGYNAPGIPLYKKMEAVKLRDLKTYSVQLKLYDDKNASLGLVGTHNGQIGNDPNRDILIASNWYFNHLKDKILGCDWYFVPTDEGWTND

Binder | binding result
anti-GM-CSF human IgG1 monoclonal antibody E10 (antibody, V domains shown, Fully human IgG1 kappa made by a hybridoma from B cells of a PAP patient; also called 4E10; E10.20) VH: QVQLEESGGGVVQPGRSLRLSCAASGFTFTNYGMHWVRQAPGKGLEWLALISYDGNRQYYADSVKGRFTVSRDNPNNTLHLEMKSLRAEDSAIYYCARGAGVLLWFGDLSWFDPWGQGTLVTVSS VL: DIQMTQSPSNLSASVGDRVTITCRASQNINTWLAWYQHKPGKPPKLRIYQASTLESGVPSRFSGSGSGTIFTLTISSLQPDDFGTYYCQQNNSYPYTFGQGTKLEINR | no binding
anti-GM-CSF human IgG1 monoclonal antibody G9 (antibody, V domains shown, Fully human IgG1 kappa made by a hybridoma from B cells of a PAP patient; also called 10G9; 10G9.1) VH: EVQLVESGGGLVQPGGSLRLSCAASGFTFSRHWMHWLRQVPGKGPVWVSRINGAGTSITYADSVRGRFTISRDNANNTLFLQMNSLRADDTALYFCARANSVWFRGLFDYWGQGTPVTVSS VL: EIVLTQSPVTLSVSPGERVTLSCRASQSVSTNLAWYQQKLGQGPRLLIYGASTRATDIPARFSGSGSETEFTLTISSLQSEDFAVYYCQQYDKWPDTFGQGTKLEIKR | no binding

Source: patent US20080292641A1 (MORPHOTEK, published 2008)
